± gives the standard deviation of the averaged measurements.
tested on: Saccharomyces cerevisiae; assay: protein stability index of tFT-peptide fusion (C-terminal peptide) (PSI (0-1 scale)); higher = more stable (slower turnover); conditions: genetic background: wild type; temperature: 30 C
Method: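 Multiplexed protein stability (MPS) profiling in S. cerevisiae. Random 12-aa peptides (tFT-X12 library) are fused to the C-terminus of a sfGFP-mCherry tandem fluorescent timer, after mCherry and a GGGS linker. Cells are FACS-sorted into 8 mCherry/sfGFP bins and deep-sequenced. The protein stability index (PSI) is the read-weighted bin average, scaled from 0 (unstable) to 1 (stable). Only peptides with >10 reads are reported; cells were grown at 30 °C in SC-His with glucose.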
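Also: PSI is a weighted mean of sequencing reads over stability bins, variants kept only with over 10 reads, mCherry proximal and sfGFP distal, peptide attached via GGGS linker.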

ATLGTVTLAFSV and GRVLSEAWSEAF are within error of each other in protein stability index: 0.634 ± 0.044 for the first, 0.664 ± 0.054 for the second.

Going from PLFAPLCLNSNR to KQKIKKRIKKTI, the protein stability index rises from 0.666 ± 0.016 to 0.6958 ± 0.0029.

KIGSQLAGYKIS and EGVGGGRWCGRG are within error of each other in protein stability index: 0.595 ± 0.063 for the first, 0.666 ± 0.055 for the second.

RKGSVVILGLGL and APSSLLTPPACI are within error of each other in protein stability index: 0.65248 ± 0.0003 for the first, 0.734 ± 0.083 for the second.

DSTMWDALSVCV and FGRGGGGFLTLV are within error of each other in protein stability index: 0.621 ± 0.026 for the first, 0.647 ± 0.0034 for the second.

TPRTNATAMCTP and SPPSRASFPPPS are within error of each other in protein stability index: 0.72 ± 0.038 for the first, 0.682 ± 0.022 for the second.

KVDRREGSRGGG and PLPPILPAPPPT are within error of each other in protein stability index: 0.6816 ± 0.004 for the first, 0.704 ± 0.028 for the second.

Compared with GRFVVHEEVWFV, CASSFSFFRFPP is lower in protein stability index: 0.6958 ± 0.0035 for the first, 0.586 ± 0.019 for the second.

FESRGEPPDIQV and WLVRHLGFVPWI are within error of each other in protein stability index: 0.668 ± 0.049 for the first, 0.7 ± 0.028 for the second.

Going from CLFSFGPLAVNI to GSSAEGKALTES, the protein stability index rises from 0.6 ± 0.0079 to 0.668 ± 0.053.

AVFQEIPFGIPP and QKKNKNKIRTPN are within error of each other in protein stability index: 0.696 ± 0.073 for the first, 0.688 ± 0.012 for the second.

VGCLGGCGCGGV and FESTIKNINNSI are within error of each other in protein stability index: 0.716 ± 0.07 for the first, 0.714 ± 0.011 for the second.

First: PPHPTPRTLPSP
Second: GASPTNSPLIYT
The protein stability index of the first is higher: 0.691 ± 0.0027 for the first, 0.679 ± 0.0077 for the second.

RKKRNKDARQQN and TVMSDCQTDQAS are within error of each other in protein stability index: 0.679 ± 0.057 for the first, 0.657 ± 0.065 for the second.

Going from VVWGGWGGWGCW to FVPSSVFLFCLG, the protein stability index falls from 0.81 ± 0.17 to 0.545 ± 0.023.

AVAFELCDLTRG and SPPRPPPVPPPP are within error of each other in protein stability index: 0.702 ± 0.038 for the first, 0.617 ± 0.054 for the second.

LAFGLGSFVWNC and KGRGEVGTRRYG are within error of each other in protein stability index: 0.6765 ± 0.00075 for the first, 0.638 ± 0.079 for the second.

SFDPCLCTLSLL and PRGWAGGQITPR are within error of each other in protein stability index: 0.6961 ± 0.0049 for the first, 0.686 ± 0.03 for the second.

SGSFQGNVRVPC and GCGGRARAGAGG are within error of each other in protein stability index: 0.676 ± 0.017 for the first, 0.697 ± 0.089 for the second.

PPSPSFLPPPPP and SECLCVRDRCGG are within error of each other in protein stability index: 0.676 ± 0.024 for the first, 0.685 ± 0.078 for the second.

Compared with PPPHPALPHPLH, KVSSCLTNFILV is lower in protein stability index: 0.682 ± 0.01 for the first, 0.552 ± 0.029 for the second.

Compared with PKPPPSSGRCPA, VIACLCGGVMWV is lower in protein stability index: 0.633 ± 0.011 for the first, 0.577 ± 0.0008 for the second.

GAVRWGGAGVGV and KIRINKKVKNKK are within error of each other in protein stability index: 0.73 ± 0.063 for the first, 0.671 ± 0.005 for the second.

LRTLALSYTSLT and LKLTFPFWNTGT are within error of each other in protein stability index: 0.664 ± 0.035 for the first, 0.728 ± 0.034 for the second.

GWCRSYVAFGVY and TTPHTSFTILHP are within error of each other in protein stability index: 0.64 ± 0.052 for the first, 0.696 ± 0.087 for the second.

NSVLRESSGLQL and GALEMNVCVPWL are within error of each other in protein stability index: 0.689 ± 0.044 for the first, 0.65 ± 0.017 for the second.

NNNKKKDDNIDM and AHQRSRRPKPSR are within error of each other in protein stability index: 0.618 ± 0.079 for the first, 0.65 ± 0.072 for the second.

QTPLPPSAISPP and REKEIIIIKKEK are within error of each other in protein stability index: 0.7124 ± 0.005 for the first, 0.683 ± 0.037 for the second.

KLVGASVYECQR and PWVLSLASGSPS are within error of each other in protein stability index: 0.672 ± 0.012 for the first, 0.687 ± 0.026 for the second.

GWCACFMGSGWG and PLRGRRPIFPAP are within error of each other in protein stability index: 0.703 ± 0.06 for the first, 0.724 ± 0.088 for the second.

RPSTVPGHGSDT and VYRGSQKQRAQG are within error of each other in protein stability index: 0.677 ± 0.011 for the first, 0.685 ± 0.024 for the second.

GGGGVGSSGARV and GQPYTHASSSIG are within error of each other in protein stability index: 0.644 ± 0.068 for the first, 0.685 ± 0.017 for the second.

Compared with VRLIQLLFTLRT, SYRNRTEHPKLP is higher in protein stability index: 0.53 ± 0.062 for the first, 0.74 ± 0.036 for the second.

GCMVFTGGKRVL and PNKRLKERGDPS are within error of each other in protein stability index: 0.672 ± 0.03 for the first, 0.695 ± 0.086 for the second.

Going from RGVGGAPVWPFV to GSKLTLRLSEHF, the protein stability index falls from 0.765 ± 0.0093 to 0.686 ± 0.025.

LSLPHPSPLSFS and GYFHADYIPLSY are within error of each other in protein stability index: 0.718 ± 0.038 for the first, 0.7474 ± 0.0029 for the second.

ATLSSVSSGSSF and FEAVDSLFMLVL are within error of each other in protein stability index: 0.647 ± 0.12 for the first, 0.686 ± 0.034 for the second.

GAECVSGWGGET and FPHPPPGPRALH are within error of each other in protein stability index: 0.709 ± 0.035 for the first, 0.691 ± 0.16 for the second.

KKREEVKKNIKI and WLFDFECRCILG are within error of each other in protein stability index: 0.681 ± 0.019 for the first, 0.65 ± 0.11 for the second.

SRTYAHSPPLPA and GGLSELGSGIKC are within error of each other in protein stability index: 0.699 ± 0.027 for the first, 0.673 ± 0.0083 for the second.

Compared with VCVSCTPALLFL, PTSLPPLSRPPP is higher in protein stability index: 0.608 ± 0.056 for the first, 0.723 ± 0.029 for the second.

KIVKNQKKKKQR and VGSGEWTRAMNR are within error of each other in protein stability index: 0.732 ± 0.019 for the first, 0.673 ± 0.062 for the second.

EERLGIIVRSDR and EGDQSRMTQPRG are within error of each other in protein stability index: 0.635 ± 0.079 for the first, 0.647 ± 0.034 for the second.

SPPPMSPLLRPA and GRGSAGPARVST are within error of each other in protein stability index: 0.653 ± 0.033 for the first, 0.697 ± 0.024 for the second.

GTCWAGAMGGVG and KYPVDHHTPLSS are within error of each other in protein stability index: 0.675 ± 0.042 for the first, 0.703 ± 0.021 for the second.

VESDREPIFGCA and VRQRADSCEAHA are within error of each other in protein stability index: 0.65467 ± 0.00014 for the first, 0.659 ± 0.056 for the second.

LRCPLPFFSAFF and CLGLVSLSGGAR are within error of each other in protein stability index: 0.704 ± 0.11 for the first, 0.712 ± 0.073 for the second.

Going from SPLPRSLPPLPP to VHCGTEPRGPRH, the protein stability index rises from 0.654 ± 0.019 to 0.709 ± 0.027.

Going from SMYHSCTFRTTV to YCRSFSGPFFDI, the protein stability index rises from 0.586 ± 0.021 to 0.745 ± 0.094.

Source: the supplement of paper PMC10724198
